# Source: the supplement of paper PMC9170038
# Tested on: MS2 coat protein
# Assay: apparent KD of MS2 coat protein; designed switch direction (-1 OFF switch, 1 ON switch): -1; higher = weaker reporter binding
# How it was run: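 The buffer was Tris-HCl pH 7.5 with KCl, MgCl2, BSA, DTT, tRNA and Tween-20. In it, SNAP-549-labelled MS2 coat protein was titrated in doubling steps from 0.7 or 1.5 nM to 3 µM over chip-bound RNA switches transcribed by stalled E. coli RNA polymerase on Illumina chips. Apparent KD is the per-design median over clusters of curve fits to normalised fluorescence.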
# [1] = input ligand: microRNA oligo, concentration not stated
# [2] = Eterna round: R95, input ligand: FMN 200 uM
# [3] = Eterna round: R95, input ligand: microRNA oligo, concentration not stated
# [4] = Eterna round: R95, input ligand: none
Sequence,apparent KD of MS2 coat protein (input ligand: FMN 200 uM) [nM],apparent KD of MS2 coat protein [1] [nM],apparent KD of MS2 coat protein (input ligand: none) [nM],apparent KD of MS2 coat protein [2] [nM],apparent KD of MS2 coat protein [3] [nM],apparent KD of MS2 coat protein [4] [nM]
"CCCAGUUAGUGAGGAUAUCAUACAUGAGGAUCACCCAUGUAAUAAAUGAGGAUUUCGGGUGUCUAUGAGAAGGCACGGAUAGGC [Ostracism 26 - Jieux - Exclusion NG 2] (Eterna round: R96, puzzle: Exclusion NG 2)",27.2,22.2,30.4,,,
"CGUUCGCGAGGAUAUGCAUUCGAGUCCACUACGUGUCUGGGACUUGAGGAUCACCCAAGUAGAAGGCGCCUAAA [salish99_ex2_r4_652] (Eterna round: R97, puzzle: Exclusion 2)",514,,577,,,
"CGGGAGGGACAAGCUGUUUGCACGUCUGGUAGUGAUGCAACAUGAGGAUCACCCAUGUAUAGGGUGUGAGAGGAUGG [JR_SV3TOV2_Sub050] (puzzle: Sensor v3, turn-off variant 2)",,,,47.1,89.6,107
UAAAAGUUAGGAUAUACAUGAGGAUCACCCAUGUCGCGGAACCGCGGCGAUUACUCCUGUAGAAGGAACAUCGU [Ribeat] (puzzle: Exclusion 3),,,,,125,
"ACCUAAAAGCUAGGAUAUACAUGAGGAUCACCCAUGUACACAGGUAGACUAACCUGUGGACUCAUGUAGAAGGAGCAUGACAAA [Erongebe] (Eterna round: R96, puzzle: Exclusion NG 2)",111,240,363,,,
"UACGAAGAGUGAGGAUAUGUGCGACAAAGUUGCACAGAAGGCACAUGAGGAUCACCCAUGUAAGCUAGGUCGAAAGACCUAGCG [Omei Exc(NG)1 Av4] (Eterna round: R96, puzzle: Exclusion NG 1)",130,21,44.7,,,
CUUGAAUAAGUGAGGAUAUACUGUUAGUAAUGAUUGUAGAAGGUACAUGAGGAUCACCCAUGUUUAUUCUUUAU [JR_BME4_Sub040] (puzzle: Brourd's mod of Exclusion 4),,,,,14.5,
UAACCUCGCGUCAGGAUAUGUGAGGACUGUGACGCACAGAAGGGACAUGAGGAUCACCCAUGUGAAAGAAAUAA [Erlacema] (puzzle: Brourd's mod of Exclusion 4),,,,,22.2,
"AUUGUAUAGGAAGGAUAUAGAAUAUUAUUUUAACAUGAGGAUCACCCAUGUAACCUUAUGUGUAGCUAGAAGGUCCGUUUAUUA [Title] (Eterna round: R96, puzzle: Exclusion NG 2)",,96.5,,,,
AAUAAGUGAGGAUAUACGUCUGGACCCGGGAGGGCUAUAUAACAUGAGGAUCACCCAUGUAGAAGGCACAAUAA [Excls2-IV] (puzzle: Exclusion 2),,,,,16.2,
"AAAUUGGUAGAGGAUAUCGUACAGGAAACAAUGCGAGAAGGCUGCACAUGAGGAUCACCCAUGUUCAGUUGCGA [EX6 #40] (Eterna round: R97, puzzle: Exclusion 6)",16.8,,15.2,,,
"ACAUGAGGAUCACCCAUGUCCGGCUGGUCUGUCUCGGCUGUCGAGGAUAUAGCACGGUAUCCGCGCUAGAAGGCGGGAGCCGGA [Aenatbe mod 86] (Eterna round: R96, puzzle: Exclusion NG 3)",120,47.1,38.8,,,
"CAGUACUGAGGAUAUACAUGAGGAUCACCCAUGUCAGAGAUACUAGUGAGGUCGAUUAGUAGAAGGCAGUACUG [Mat X3R4 m30] (Eterna round: R97, puzzle: Exclusion 3)",621,,43.5,,,
"AAUACAAGCUAUUGAUCCCACAUGAGGAUCACCCAUGUAGCUGGCGGUGACACCUCCUUUACGAUAGCUCGUCUUAU [Sensor-V1 #55] (Eterna round: R97, puzzle: Sensor, turn-off variant 1)",604,,1200,,,
"AGUUGUUGUUUCCGUUCUUACAUGAGGAUCACCCAUGUUUCUUGUCGUGCUCGCGUUGCUCGUCAGACUUCCUGUUG [salish99_TOv1_r3_066] (puzzle: Sensor v3, turn-off variant 1)",,,,77.3,93.1,121
"GCAGCAUAGAUGAAAGUCUGAUACAUGAGGAUCACCCAUGUACAGGAUAUGGUCUGGAUUACAGGCCAGAAGGGUACAAGCUGC [Eli exng3 - 013] (Eterna round: R96, puzzle: Exclusion NG 3)",14.4,10.6,12.8,,,
GAAAAGGUAGGAUAUACGAAAAAAAAGGGUAGAAAAUAAACACAUGAGGAUCACCCAUGUAGAAGGACCAAAAG [salish99_ex2_r3_075] (puzzle: Exclusion 2),,,,92,25.3,25.7

Sequence,apparent KD of MS2 coat protein (input ligand: FMN 200 uM) [nM],apparent KD of MS2 coat protein [1] [nM],apparent KD of MS2 coat protein (input ligand: none) [nM],apparent KD of MS2 coat protein [2] [nM],apparent KD of MS2 coat protein [3] [nM],apparent KD of MS2 coat protein [4] [nM]
AACUCUAAGCAGGAUAUCUAGCAAACGUCCGCAAGAGAAGGGCUUACAUGAGGAUCACCCAUGUAAGGAUGAUC [Reorzainar] (puzzle: Exclusion 6),,,,48.8,26,24.9
AAAGAACUAGGAUAUACAUGAGGAUCACCCAUGUGCAGCUUAACGGCUCACACCUUAUGUAGAAGGAGUGACCG [Riorenar] (puzzle: Exclusion 3),,,,,16,
UCCUUACAUGAGGAUCACCCAUGUCAGGAUAUCUCCACACUGCGCUUGCGCAGUGUAUAGAGAAGGGACAGGCU [JL ViennaUCT Aner mod 6] (puzzle: Exclusion 1),,,,33.4,26.5,35.8
"ACGUGGUGAGGAUAUGCACAAUACAAGAGUGUCAGAUCCGGACAUGAGGAUCACCCAUGUAGAAGGCACCCAAU [Eternabot (Original) Solution 10] (Eterna round: R97, puzzle: Exclusion 2)",41,,50.8,,,
"CUUUUGUGAGGAUAUUAGUAGUAAAUAAAUAAAAUUUCUACUGAGAAGGCACAUGAGGAUCACCCAUGUUCCUC [salish99_ex4_r3_061] (Eterna round: R96, puzzle: Exclusion 4)",347,34,33.9,,,
"AGAAAUGCCCAUGGCAACAAGCUUUUUGCUUGUCUUACCACAUGAGGAUCACCCAUGUGACAUGGGCUCCUGAUAAU [Ladidier] (puzzle: Sensor v3, turn-off variant 2)",,,,12.4,10.6,12.2
"ACAAGAAUUUUGCUCGUAAAGUAGGAACGCGAGAGCGGGACAUGAGGAUCACCCAUGUAGAGGCAGUUGGUGGAGAU [JR_SV3TOV2_Sub029] (puzzle: Sensor v3, turn-off variant 2)",,,,42.2,56,43.4
CCUUUGUCAGGAUAUCAGAACGCGCUCCUAGGGAGCGCAAAUGAGAAGGGACAUGAGGAUCACCCAUGUAAAGA [Erditive] (puzzle: Exclusion 4),,,,228,48.9,59.2
"GGGAAACAUGAGGAUCACCCAUGUAAUGAGCAUGGAAUCCCAGAGGAUAUCGCAUGUAUGAAUGUCGAGAAGGCUGACGUUAAA [Eternabot solution 6] (Eterna round: R96, puzzle: Exclusion NG 3)",1030,198,207,,,
"CCACGUCCGUACGUGUACUUGUCUCCUGAGAGCACGGGCACAUGAGGAUCACCCAUGUUUUUGCUCGUCUUAUGAGC [JR_Sensorv2_tov2_Sub716] (Eterna round: R96, puzzle: Sensor v2, turn-off variant 2)",13.8,25.4,17.7,,,
CAUACUCAAGUCAGGAUAUAGAGUCGGAUACGGGUCUAGAAGGGACAUGAGGAUCACCCAUGUAGAGAGUAAAG [EX-4 Malc #24] (puzzle: Brourd's mod of Exclusion 4),,,,62.7,30.9,30.8
"AAUUAUUGAUGAGGAUAUUGUGGUGAAACACGACGAGAAGGCAUAUGUCACAUGAGGAUCACCCAUGUGAGCCUUGUGGAUAUA [Ex NG1 #65] (Eterna round: R96, puzzle: Exclusion NG 1)",,43.5,,,,
"GGUCAGACGGUAGGAUAUCCAUAUCGAGUGACCUUUUCAUAACAUGAGGAUCACCCAUGUCGGUGGGAGAAGGGCCGUACGGCG [salish99_ExNG02_R04_004] (Eterna round: R96, puzzle: Exclusion NG 2)",114,78.2,93.2,,,
"AAAUAAUAGAUAAAAUAACACAUGAGGAUCACCCAUGUGCGAUGUUGAGGGUGAUACAGGCUUUUUGCUCGUCUUAU (puzzle: Sensor v3, turn-off variant 1)",,,,98.7,225,132
"CGCCGAGUGUUAGGAUAUCACAAGCAUCAGCGGUGAGAAGGAACAUGAGGAUCACCCAUGUACUGUCCCAUAAGGACAGGUUUC [Geestiza] (Eterna round: R96, puzzle: Exclusion NG 1)",82.7,40.9,60.8,,,
"UAAGUUUAGGUAGGAUAUACUUUAAAUUUCUCUAUCCAUACAUGAGGAUCACCCAUGUUUACAUUGUAGAAGGACCACUAUGUU [JR_ExcNG2_Sub055] (Eterna round: R96, puzzle: Exclusion NG 2)",,19.8,,,,
UAGAUGGGAGGAUAUACGUAGAUGCAGAUUCGUGUGGUGCUACAUGAGGAUCACCCAUGUAGAAGGCCCGUCUU [JL-ex2-2.24 Mayanne mod] (puzzle: Exclusion 2),,,,,15.4,
